By EC50 is commonly meant the concentration giving half of the maximal effect. By Kd is commonly meant the free concentration of one partner at which half of the binding sites on the other are occupied at equilibrium, for simple one-to-one binding. By koff is commonly meant the rate constant with which the complex falls apart. As a reminder, the kon is a measure of how fast the partners come together. The IC50 is the concentration at which inhibition is half-maximal.

Where two headings read alike, the source gives them in different places.

The source of these data is patent publication US20240417462A1 (SHANGHAI CELGEN BIO PHARMACEUTICAL, published 2024).

The target of assay [1] is T1, full-length human TIGIT expressed on CHO-K cell membrane (CHO-K-TIGIT) (human, UniProt Q495A1 22-244).
T1 construct: whole, on cells; also called CHO-TIGIT; membrane TIGIT
T1 sequence (looked up): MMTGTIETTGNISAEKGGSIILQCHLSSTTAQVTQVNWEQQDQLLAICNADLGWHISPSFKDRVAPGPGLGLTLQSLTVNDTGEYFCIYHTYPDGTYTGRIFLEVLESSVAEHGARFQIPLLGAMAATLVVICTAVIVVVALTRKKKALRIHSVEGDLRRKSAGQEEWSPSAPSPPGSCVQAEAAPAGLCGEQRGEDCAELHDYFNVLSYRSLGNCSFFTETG
Nature of the assay: flow cytometry, CHO-TIGIT cells. A general note: In flow cytometry, cells or beads pass a laser one at a time.

The target in assay [2] is T2, recombinant human TIGIT (Human TIGIT His, Sino Biological, 10917-H08H) (human, UniProt Q495A1 22-138).
T2 construct: range 1-138; bought; also called hTIGIT
T2 sequence (looked up): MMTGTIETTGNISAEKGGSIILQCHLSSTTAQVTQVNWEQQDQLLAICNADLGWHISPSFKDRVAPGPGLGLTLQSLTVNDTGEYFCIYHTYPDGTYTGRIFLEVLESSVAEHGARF
Nature of the assay: ELISA, coated human TIGIT-His. (An ELISA detects its analyte on a solid surface through an enzyme-linked reagent.)

Assay [3] deals with T2, recombinant human TIGIT (Human TIGIT …). Description: BLI, antibody captured on anti-human Fc probe, TIGIT-His in solution.
For assay [4] the target is unchanged. Nature of the assay: competition ELISA on recombinant human TIGIT, CD155 as competitor.
For assay [5] the target is unchanged. Nature of the assay: BLI, antibody captured on anti-human Fc probe, TIGIT-His in solution. The source holds these as a separate data set. (In general: In BLI a coated tip is dipped into the sample, and binding shifts an interference pattern.)

B1: humanized anti-human TIGIT monoclonal antibody P03477 (antibody, V domains shown)
VH: EVQVVESGGGLVKPGGSLRLSCAASGFTFSTYAMSWVRQAPGKGLEWVAEISSGGSHTFYSDTVTGRFTISRDNAKNTLYLQMNSLRAEDTAVYYCARKTLDYYALDYWGQGTTVTVSS
VL: DVQITQSPSSVSASVGDRVTINCRASKSISKYLAWYQQKPGKAPKLLIYSGSRLQSGVPSRFSGSGSGTDFTLTISSLQPEDFATYYCQQHNEYPWTFGGGTKLEIK
In assay [1], B1 showed a concentration for a half-maximal effect (EC50) of 1.74 nM. In addition, the EC50 in assay [2] is 0.194 nM. In assay [3], the Kd is 5.95 nM, the koff was determined as 0.00291 s⁻¹ and the kon worked out at 490000 M⁻¹ s⁻¹. Also, in assay [4], the IC50 worked out at 0.928 nM.

B2: humanized anti-human TIGIT monoclonal antibody P03483 (antibody, V domains shown)
VH: EVQLVESGGGLVKPGGSLRLSCAASGFTFSTYAMSWVRQAPGKGLEWVAEISSGGSHTFYADTVTGRFTISRDNAKNTLYLQMNSLRAEDTAVYYCARKTLDYYALDYWGQGTTVTVSS
VL: DVQITQSPSSVSASVGDRVTINCRASKSISKYLAWYQQKPGKAPKLLIYSGSRLQSGVPSRFSGSGSGTDFTLTISSLQPEDFATYYCQQHNEYPWTFGGGTKLEIK
Molecule B2 registered a concentration for a half-maximal effect (EC50) in assay [1] of 2.61 nM. In addition, the EC50 in assay [2] was found to be 0.212 nM. Also, in assay [3], the Kd stood at 7.77 nM, the koff turned out to be 0.0046 s⁻¹ and the on-rate constant (kon) came to 592000 M⁻¹ s⁻¹. Also, in assay [4], the concentration for half-maximal inhibition (IC50) is 0.836 nM.

B3: humanized anti-human TIGIT monoclonal antibody P03484 (antibody, V domains shown)
VH: EVQLVESGGGLVKPGGSLRLSCAASGFTFSTYAMSWVRQAPGKGLEWVAEISSGGSHTFYADTVTGRFTISRDNAKNTLYLQMNSLRAEDTAVYYCARKTLDYYALDYWGQGTTVTVSS
VL: DIQMTQSPSSVSASVGDRVTITCRASKSISKYLAWYQQKPGKAPKLLIYSGSRLQSGVPSRFSGSGSGTDFTLTISSLQPEDFATYYCQQHNEYPWTFGGGTKLEIK
On to B3, for which the concentration for a half-maximal effect (EC50) in assay [2] was 0.187 nM. For the same molecule, in assay [3], the dissociation constant Kd is 9.15 nM, the koff turned out to be 0.00639 s⁻¹ and the association rate constant (kon) is 699000 M⁻¹ s⁻¹. For the same molecule, the 50% inhibitory concentration (IC50) in assay [4] stood at 1.29 nM.

B4: humanized anti-human TIGIT monoclonal antibody P03482 (antibody, V domains shown)
VH: EVQLVESGGGLVKPGGSLRLSCAASGFTFSTYAMSWVRQAPGKGLEWVAEISSGGSHTFYADTVTGRFTISRDNAKNTLYLQMNSLRAEDTAVYYCARKTLDYYALDYWGQGTTVTVSS
VL: DVQITQSPSYLSASVGDRVTINCRASKSISKYLAWYQQKPGKAPKLLIYSGSRLQSGIPSRFSGSGYGTDFTLTISSLQPEDFATYYCQQHNEYPWTFGGGTKLEIK
B4 returned an EC50 in assay [1] of 2.38 nM. The concentration for a half-maximal effect (EC50) in assay [2] came out at 0.182 nM. For the same molecule, in assay [3], the Kd stood at 6.15 nM, the koff was 0.00406 s⁻¹ and the kon was found to be 661000 M⁻¹ s⁻¹. In addition, the IC50 in assay [4] stood at 0.791 nM.

B5: humanized anti-human TIGIT monoclonal antibody P04664 (antibody, V domains shown)
VH: EVQVVESGGGLVKPGGSLRLSCAASGFTFSTYAMSWVRQAPEQRLEWVAEISSGGSHTFYSDTVTGRFTISRDNAKNTLYLQMNSLRAEDTAVYYCARKTLDYYALDYWGQGTTVTVSS
VL: DVQITQSPSSVSASVGETITINCRASKSISKYLAWYQQKPGKAPKLLIYSGSRLQSGVPSRFSGSGSGTDFTLTISSLQPEDFATYYCQQHNEYPWTFGGGTKLEIK
For B5, in assay [3], the Kd was 2.73 nM, the off-rate constant (koff) came out at 0.00391 s⁻¹ and the on-rate (kon) was 1.43e+06 M⁻¹ s⁻¹.

B6: humanized anti-human TIGIT monoclonal antibody P03481 (antibody, V domains shown)
VH: EVQVVESGGGLVKPGGSLRLSCAASGFTFSTYAMSWVRQAPGKGLEWVAEISSGGSHTFYADTVKGRFTISRDNAKNTLYLQMNSLRAEDTAVYYCARKTLDYYALDYWGQGTTVTVSS
VL: DIQMTQSPSSVSASVGDRVTITCRASKSISKYLAWYQQKPGKAPKLLIYSGSRLQSGVPSRFSGSGSGTDFTLTISSLQPEDFATYYCQQHNEYPWTFGGGTKLEIK
In turn, B6 came in with an EC50 in assay [1] of 2.82 nM. Besides, the half-maximal effective concentration (EC50) in assay [2] turned out to be 0.122 nM. In addition, in assay [3], the Kd came to 10 nM, the off-rate (koff) stood at 0.00666 s⁻¹ and the kon turned out to be 665000 M⁻¹ s⁻¹. Further, the concentration for half-maximal inhibition (IC50) in assay [4] was 0.62 nM.

B7: humanized anti-human TIGIT monoclonal antibody P03478 (antibody, V domains shown)
VH: EVQVVESGGGLVKPGGSLRLSCAASGFTFSTYAMSWVRQAPGKGLEWVAEISSGGSHTFYSDTVTGRFTISRDNAKNTLYLQMNSLRAEDTAVYYCARKTLDYYALDYWGQGTTVTVSS
VL: DIQMTQSPSSVSASVGDRVTITCRASKSISKYLAWYQQKPGKAPKLLIYSGSRLQSGVPSRFSGSGSGTDFTLTISSLQPEDFATYYCQQHNEYPWTFGGGTKLEIK
Take B7: in assay [1], the EC50 came out at 2.58 nM. For the same molecule, the EC50 in assay [2] stood at 0.161 nM. In assay [3], the dissociation constant (Kd) is 10.1 nM, the koff amounted to 0.00714 s⁻¹ and the kon was found to be 707000 M⁻¹ s⁻¹. In assay [4], the half-inhibitory concentration (IC50) is 0.989 nM.

B8: humanized anti-human TIGIT monoclonal antibody P03480 (antibody, V domains shown)
VH: EVQVVESGGGLVKPGGSLRLSCAASGFTFSTYAMSWVRQAPGKGLEWVAEISSGGSHTFYADTVKGRFTISRDNAKNTLYLQMNSLRAEDTAVYYCARKTLDYYALDYWGQGTTVTVSS
VL: DVQITQSPSSVSASVGDRVTINCRASKSISKYLAWYQQKPGKAPKLLIYSGSRLQSGVPSRFSGSGSGTDFTLTISSLQPEDFATYYCQQHNEYPWTFGGGTKLEIK
As to B8, in assay [1], a half-maximal response (EC50) required 2.19 nM. Moreover, the EC50 in assay [2] was 0.252 nM. In addition, in assay [3], the Kd came out at 6.67 nM, the koff stood at 0.00404 s⁻¹ and the kon was 605000 M⁻¹ s⁻¹. For the same molecule, in assay [4], the IC50 amounted to 1.24 nM.

B9: humanized anti-human TIGIT monoclonal antibody P03476 (antibody, V domains shown)
VH: EVQVVESGGGLVKPGGSLRLSCAASGFTFSTYAMSWVRQAPGKGLEWVAEISSGGSHTFYSDTVTGRFTISRDNAKNTLYLQMNSLRAEDTAVYYCARKTLDYYALDYWGQGTTVTVSS
VL: DVQITQSPSYLSASVGDRVTINCRASKSISKYLAWYQQKPGKAPKLLIYSGSRLQSGIPSRFSGSGYGTDFTLTISSLQPEDFATYYCQQHNEYPWTFGGGTKLEIK
B9: the concentration for a half-maximal effect (EC50) in assay [1] came out at 1.52 nM. In assay [2], the 50% effective concentration (EC50) was 0.221 nM. In assay [3], the dissociation constant Kd was 7.92 nM, the dissociation rate constant (koff) came out at 0.00483 s⁻¹ and the kon was 610000 M⁻¹ s⁻¹. In addition, in assay [4], the concentration for half-maximal inhibition (IC50) was determined as 1.32 nM.

B10: humanized anti-human TIGIT monoclonal antibody P03488 (antibody, V domains shown)
VH: QVQLVQSGAEVKKPGASVKVSCKASGYTFISYNIYWVRQAPGQGLEWIGGVNPSNGNTNFNENFKGRVTLTVDTSISTAYMELSRLRSDDTAVYYCTRGNYYGYEFAYWGQGTTVTVSS
VL: DIQMTQSPSSMSASVGDRVTITCKASQHVSTAVAWYQQKPGKAPKLLIYSPSYRYTGVPSRFSGSGSGTDFTFTISSVQPEDIATYYCQQHYSTPWTFGGGTKLEIK
For B10, in assay [5], the Kd was 1.02 nM, the koff was found to be 0.000519 s⁻¹ and the kon is 511000 M⁻¹ s⁻¹.

B11: humanized anti-human TIGIT monoclonal antibody P03489 (antibody, V domains shown)
VH: QVQLVQSGAEVKKPGASVKVSCKASGYTFISYNIYWVRQAPGQGLEWMGGVNPSNGNTNFNENFQGRVTMTVDTSISTAYMELSRLRSDDTAVYYCTRGNYYGYEFAYWGQGTTVTVSS
VL: DIQMTQSPSSMSASVGDRVTITCKASQHVSTAVAWYQQKPGKAPKLLIYSPSYRYTGVPSRFSGSGSGTDFTFTISSVQPEDIATYYCQQHYSTPWTFGGGTKLEIK
In turn, B11 returned a concentration giving a half-maximal response (EC50) in assay [1] of 0.761 nM. Besides, in assay [5], the Kd amounted to 1.19 nM, the dissociation rate constant (koff) amounted to 0.000584 s⁻¹ and the kon amounted to 489000 M⁻¹ s⁻¹.
